Experimental data from US20250277037A1 (UNIVERSITY OF UTAH RESEARCH FOUNDATION, published 2025).

T1: mouse FcγRIV on RAW 264.7 macrophage cells (mouse, UniProt A0A0B4J1G0 21-249)
T1 construct: also called RAW 264.7 cells
T1 sequence: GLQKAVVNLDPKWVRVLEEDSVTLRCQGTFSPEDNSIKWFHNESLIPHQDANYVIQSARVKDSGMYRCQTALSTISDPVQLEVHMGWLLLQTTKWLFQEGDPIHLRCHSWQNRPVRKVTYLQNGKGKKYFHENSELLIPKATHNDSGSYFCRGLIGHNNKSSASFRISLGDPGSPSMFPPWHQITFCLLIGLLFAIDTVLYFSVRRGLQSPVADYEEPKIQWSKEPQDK

B1: D-αPD-1 (depleting anti-mouse PD-1 antibody; RMP1-14 variable domains on mouse IgG2a heavy and mouse κ light constant domains) (antibody)
heavy: EVQLQESGPGLVKPSQSLSLTCSVTGYSITSSYRWNWIRKFPGNRLEWMGYINSAGISNYNPSLKRRISITRDTSKNQFFLQVNSVTTEDAATYYCARSDNMGTTPFTYWGQGTLVTVSSAKTTAPSVYPLAPVCGDTTGSSVTLGCLVKGYFPEPVTLTWNSGSLSSGVHTFPAVLQSDLYTLSSSVTVTSSTWPSQSITCNVAHPASSTKVDKKIEPRGPTIKPCPPCKCPAPNLLGGPSVFIFPPKIKDVLMISLSPIVTCVVVDVSEDDPDVQISWFVNNVEVHTAQTQTHREDYNSTLRVVSALPIQHQDWMSGKEFKCKVNNKDLPAPIERTISKPKGSVRAPQVYVLPPPEEEMTKKQVTLTCMVTDFMPEDIYVEWTNNGKTELNYKNTEPVLDSDGSYFMYSKLRVEKKNWVERNSYSCSVVHEGLHNHHTTKSFSRTPGK
light: DIVMTQGTLPNPVPSGESVSITCRSSKSLLYSDGKTYLNWYLQRPGQSPQLLIYWMSTRASGVSDRFSGSGSGTDFTLKISGVEAEDVGIYYCQQGLEFPTFGGGTKLELKRADAAPTVSIFPPSSEQLTSGGASVVCFLNNFYPKDINVKWKIDGSERQNGVLNSWTDQDSKDSTYSMSSTLTLTKDEYERHNSYTCEATHKTSTSPIVKSFNRNEC
notes: also called anti-αPD-1 antibody; anti-PD-1 antibody 1

Tests used:
[1] = target: mouse FcγRIV on RAW 264.7 macrophage cells (mouse); test: competition by flow cytometry on RAW 264.7 cells: preincubation with the antibody at 4 °C for 30 min, then staining with PE anti-mouse FcγRIV (clone 9E9); inhibition relative to cells without antibody
[2] = target: mouse FcγRIV on RAW 264.7 macrophage cells (mouse); test: competition, flow cytometry on RAW 264.7 cells; 25 and 250 µg/mL, not concentration-dependent; competitor PE anti-mouse FcγRIV (9E9)
[3] = target: mouse PD-1 (programmed death-1, CD279) on EL4 cells (mouse) (UniProt Q02242); test: flow cytometry on PD-1+ EL4 cells, incubation on ice (4 °C) for 30 min, detection with PE anti-mouse IgG2a; medium control without antibody given as 70.0
[4] = target: mouse FcγRIV on RAW 264.7 macrophage cells (mouse); test: flow cytometry, Alexa-647-labelled antibody at 4 µg/mL on RAW 264.7 cells, 4 °C 30 min (medium control 188.3)
[5] = target: T1, mouse FcγRIV on RAW 264.7 macrophage …; test: flow cytometry, Alexa-647-labelled antibody at 4 µg/mL on RAW 264.7 cells, 4 °C 30 min; reference: cells in the medium control
Procedure: ADCP was the next mechanism that was investigated. Before evaluating D-αPD-1-mediated ADCP by macrophages, the binding between D-αPD-1 and macrophages was investigated since the binding is the prerequisite of ADCP. Here, RAW 264.7 cells were incubated with Alexa-647-labeled D-αPD-1, isotype control, or the medium control. Then, the bound antibodies were analyzed by flow cytometry (FIG. 5A).

Chain of mouse PD-1 (programmed death-1, CD279) on EL4 cells (mouse) (Q02242 25-288): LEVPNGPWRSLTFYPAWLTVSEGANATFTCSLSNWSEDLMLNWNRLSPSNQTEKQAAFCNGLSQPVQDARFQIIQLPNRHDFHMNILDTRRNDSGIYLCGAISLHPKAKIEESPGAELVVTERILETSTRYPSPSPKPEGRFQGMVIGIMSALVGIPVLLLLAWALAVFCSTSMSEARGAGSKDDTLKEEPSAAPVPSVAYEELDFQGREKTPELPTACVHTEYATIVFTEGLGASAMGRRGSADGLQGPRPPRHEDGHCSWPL

Molecule | Inhibition (%) at 25 µg/mL [1] [%] | Inhibition (%) at 250 µg/mL [1] [%] | percent inhibition of anti-mouse FcγRIV antibody binding [2] [%] | also measured
goat IgG control (antibody) | 4 | 4.3 | 10 | 
B-αPD-1 (anti-mouse PD-1 blocking antibody, clone RMP1-14, a rat IgG) | 10.5 | 6.7 | 10 | 
mouse IgG2a isotype control (antibody) |  |  |  | MFI at 0.1 µg/mL [3]: 95.4; MFI at 1 µg/mL [3]: 125; MFI at 10 µg/mL [3]: 433; MFI [4]: 213 MFI
B1 |  |  |  | fold MFI over medium control [5]: ~3 fold
